The test system of data set [1] is peroxisome proliferator-activated receptor (PPAR). The conditions noted are these: background statement, Non Patent Literature 1; cited from earlier work.
Data set [2] in a line: Measurement of activity of PK LOX1: EPA added to medium of PK LOX1 expressing Sf9 insect cells, LC-QTOFMS of cell extract. The format is cell-based. As to the method: (§1) A P1 baculovirus stock prepared by cryopreserving a culture supernatant of Sf9 insect cells transduced with bacmid expressing PK LOX1 was added to a medium of Sf9 insect cells and cultured for 1 week. 50 μM of arachidonic acid, eicosapentaenoic acid, or docosahexaenoic acid was added to the medium of baculovirus infected cells, and the cells were centrifuged and collected after 4 hours of culture. After removing the medium from the Sf9 cells and adding acetonitrile to the cells and sonicating the cells, the solution was centrifuged for 10 minutes at 20,000 g, and the supernatant was used as an extract. 5 μL of the extract was subjected to high performance liquid chromatography/mass spectrometry system (LC-QTOFMS: Agilent) to analyze 8-HETE, 8-HEPE, and 10-HDoHE. […] The 8-HETE content after adding an arachidonic acid, 8-HEPE content after adding an eicosapentaenoic acid, and 10-HDoHE content after adding a docosahexaenoic acid are higher in a PK LOX1 expressing Sf9 insect cell extract compared to an extract of EGFP expressing Sf9 insect cells used as a control. It was confirmed that 8-HETE, 8-HEPE, and 10-HDoHE production is induced by PK LOX1 expression (FIG. 6C).

Data set [3] is described as follows: Measurement of activity of PK LOX1: arachidonic acid added to medium of PK LOX1 expressing Sf9 insect cells, LC-QTOFMS of cell extract. The format is cell-based. The conditions noted are these: 50 μM, 4 hours; FIG. 6C. The protocol:
as §1

Data set [4] in a line: Measurement of activity of PK LOX1: docosahexaenoic acid added to medium of PK LOX1 expressing Sf9 insect cells, LC-QTOFMS of cell extract. Type of data set: cell-based. Conditions: 50 μM, 4 hours; FIG. 6C. As to the method: as §1
The nature of data set [5]: Measurement of activity of PK LOX2: thawed PK LOX2 expressing Sf9 cell pellets incubated with EPA, LC-QTOFMS. Type of data set: biochemical, Sf9 cells. As to the method:
A baculovirus stock expressing PK LOX2 obtained by the same method as PK LOX1 in Example 3 was prepared. Sf9 cells were infected therewith. After washing the Sf9 cells after two days from infection with PBS and centrifuging the cells at 1500 g, the cells were frozen at −80° C. after removing the PBS. 50 μL of 200 mM Tris-HCl (pH of 7.4) supplemented with EPA at a concentration of 50 μM was added to PK LOX2 expressing Sf9 cell pellets thawed on ice, and the pellets were incubated for 4 hours at 27° C. After adding 150 μL of acetonitrile (containing 1% formic acid) to the incubated solution and vortexing the solution, the solution was centrifuged for 10 minutes at 4° C. at 20,000 g. The supernatant was collected and 5 μL thereof was subjected to LC-QTOFMS to analyze 8-HEPE.

In the case of `CCC=CCC=CCC=CC=CC(O)CC=CCCCC(=O)O` (centres unmarked) [8-HEPE, 8-hydroxyeicosapentaenoic acid], the “PPAR activating action compared with EPA” value in data set [1] is “higher peroxisome proliferator-activated receptor (PPAR) activating action than EPA”.

B1: PK LOX1: lipoxygenase isolated from Euphausia pacifica, 691 amino acids, SEQ ID NO: 2, expressed His-tagged in Sf9 insect cells (protein, listed as Euphausia pacifica)
chain: MAPIKEKKSFKLTAATGNQDGAGTDANVYVTFEDEEGRRTKEKKLDKLLYNDLEKGKKDKYDINAPVEFGAVKKLHVHRDSTGLGDSWFCDYFEIKDLRFKGNNNEPSPTKKEYYYFPIHRWISSQHRYEFDEYGTCLPQADPCIGPRKADLEAKKSSYNYVYRIGAMAATDTTDACVGHCAQVETLPADEKFSEDYYWNFATDKLKLLAETKWMEWTNQTKWNSLSDLRSVYKKSLGEPKCLDVWREDWWFGLQRLQGVNPVIIELCTQIPDNLAVTDTTVEGLMDDLTLNEALENKKIFICDLKIMDGLCCKENRELAAPLALFYLNKENKLLPIALQLKQEKGDDNPVFTPKDSKNTWLVAKMFYNNSEAQHHQALTHLGYTHLLMEGVVVCTHRNLSPSHPLFKLMAPHFLFLLAINSRGLEKLVSEGGWVDCCMTQGLCGILDLMKRGFEAWTYTKFGSVSAELEARGVLNKDVLPYYPYRDDALPLFAEIRKYVKTIVEHHYDNEDKMKEDWELKSWREELAKQRSENGVGLADIPGSKEDGFNSVDEVVDVVTMIISTCSLGHAASNFQQYEQYGYVPNYPGILMSTLPKEKKEYTEEEIMQILPDKRMTLDIMVITKLLSTKGTQSLGDFEMQYLYDPVGVQAAKDFRKNLDRLSKKNKLENVDRQWDFDWLDPEFVPNAISV
modifications: His tag
Turning to B1, the “8-HEPE content after adding an eicosapentaenoic acid, compared to extract of EGFP expressing Sf9 insect cells (control)” value in data set [2] (50 μM, 4 hours, FIG. 6C) is reported as “higher”. Further, in data set [2] (EPA 50 μM added, 4 hours of culture, FIG. 6A), the “production of 8-HEPE in cell extract” value is listed as “Production of 8-HEPE was observed”. Also, the “activity compared with specific activity of lipoxygenases known in the art” value in data set [2] (PK LOX1 expressing Sf9 cells) was “markedly stronger than the specific activity of lipoxygenases known in the art”. Further, the “position specificity of oxidation of EPA” value in data set [2] (only one peak of m/z=317.22, retention time and MS/MS match 8-HEPE standard, FIG. 6A, 6B) is “catalyzed position 8 specific oxidation of EPA”. Besides, the “specific activity of lipoxygenase (8-HEPE/PK LOX1 expressing Sf9 cell protein)” value in data set [2] (printed as 'up to about', 50 μM substrate, 4 hours of culture, FIG. 6C) is “about 2.5 μg/mg”. The “8-HETE content after adding an arachidonic acid, compared to extract of EGFP expressing Sf9 insect cells (control)” value in data set [3] was “higher”. In data set [4], the “10-HDoHE content after adding a docosahexaenoic acid, compared to extract of EGFP expressing Sf9 insect cells (control)” value is “higher”.

B2: PK LOX2: lipoxygenase isolated from Euphausia pacifica, 686 amino acids, SEQ ID NO: 4, expressed His-tagged in Sf9 insect cells (protein, listed as Euphausia pacifica)
chain: MVALRCFKPEEMHIFTICGLFLAAMEVSNAYLCNNNFLVTVKTGYGTDAGSNASVILVLEDQNRNEIRNWLSIPKQDETGNHRIPIPTSFGRIVTVELALDYKLAPDWYCEDIFIEDPRLNDRLYFPIDRRIQGNQFYDFQNYATCLPQFDQNSISRRLTLQKKREDYQLSYDRTAAMVKDLPQDEIFHQDYISSIRAIQKTSIDDQIPLLQAWQSSNNISAFFGGDFYMPQSIQFWKEDAWFGAQRVQGIVPNIIELCKQIPDKLGVTEDTISGLLEGSTLQQALKNNKIFISDLELLDGIQYSGVWSDNADHAAPISVFYLNKIDQLMPIAIQLRQQKGPKNPVYTPKDPPNTWLVAKIYYNNAESQFHQILVHFGYTHMIMDGIATSMNRQLSPSHPVFKILKPHFLYLLAINRLGEQELFVPQGVFPYFSIGLDGMNQLLAKAVPQFTLARAIGSVESDARARGVWDKQVLPYYPFRDDAHSMYNIIKKYATKVIYYYYNTPGKIINDMELQRWRTELAKPRAQGGVGIPDLPGSDTAGFRDINEIIDLVTTIITHSSVGHAAVNFPMYDTYGYFPNYPPDLNEGPPLQKMLYTEDEIMSLFPNGSHAFRVRATIRVLSWQGTNDCGDFEKIYLYDPVSQEAQVELRKDLAMFSKEVMNRNSKRFIPYKYLDPNYVPNAISI
modifications: His tag
For the molecule B2, the 8-HEPE production in data set [5] (EPA 50 μM, 4 hours at 27° C., FIG. 7) was 8-HEPE production was observed. Also, the “activity compared with specific activity of lipoxygenases known in the art” value in data set [5] (PK LOX2 expressing Sf9 cells) is on record as “markedly stronger than the specific activity of lipoxygenases known in the art”. Also, in data set [5] (printed as 'up to about', EPA 50 μM, 200 mM Tris-HCl pH 7.4, 4 hours at 27° C., FIG. 7), the “specific activity of lipoxygenase (8-HEPE/PK LOX2 expressing Sf9 cell protein)” value is given as “about 3.2 ng/mg”.

Values taken from US11230704B2, “Oxidation of highly unsaturated fatty acids with novel 8-lipoxygenase derived from Malacostraca” (Bizen Chemical Co., Ltd., priority 2018, dated 2022).
